# Assay: yeast display, Sf9 membrane polyspecificity reagent, FACS + sequencing; frameworks hold sequencing errors
# Procedure, shortened: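 A nanobody's polyreactivity label depends on the gate it was sorted from. Yeast display cells were stained with 10% biotinylated, detergent-solubilized Sf9 membrane reagent for 1 hour at 4 °C, enriched on streptavidin microbeads and sorted by FACS. The low and high (top ~1%) gates were set on anti-HA fluorescence for expression and streptavidin fluorescence for reagent binding.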
row,Sequence,polyreactivity (PSR sort gate)
1,QVQLVESGGGLVQAGGSLRLICAASGSTFGPNAMGWYRQAPGKEREFVASISWRGGRTYYADSVKGRFTISRDNAKNSVYLQMYCLKPEDTAVSYCAAVSYPAVYGFDYWGQGTQVTVSS,high polyreactivity
2,QVQLVESGGGLVQAGGSLRLICAASGSTFIKYTMGWYRPAPGKERELVAAISRIGGSTYYADSVKGRFTISRDNAKNTVYLQMNSLKPEDTAVYYCAAPYPIGHDWGQGTQVTVSS,low polyreactivity
3,QVQLVESGGGLVQAGGSLRLICAASGSTFLKYTMVWYRQAPWKERELVAAISKSGGSTYYADSVKGRFTISRDHAKNTVYLQMNSLKPEDTAVYYCAKVRSWVSSYGYGYWGQGTQVTVSS,high polyreactivity
4,QVQLVESGGGLVQAGGSLRLICAASGSTFLSNAMGWYRQATGKERELVAAITTSGTSTFYSDSVKGRFTISRDNAKNTVYLQMNSMKPEDTAVYYCAADSAHRYIPVQGYDYWGQGTQVTVSS,low polyreactivity
5,QVQLVESGGGLVQAGGSLRLICAASGSTFNDYVMGWYRQAPGKERELVAAISRSGGSTYYADSVKGRITISRDNAKNTVYLQMNSLKPEDTAVYYCAAASPGPWRYDYWGQGTQVTVSS,high polyreactivity
6,QVQLVESGGGLVQAGGSLRLICAASGSTFPGYAMGWYRQAPGKERELVATITRRGGSTYYADSVKGRFTISRDNAKNTVYLQMNSLKPEDTAVYYCNAVDYTVWLFPYDTGVDYWGQGTQVTVSS,low polyreactivity
7,QVQLVESGGGLVQAGGSLRLICAASGSTFSDNAMGWYRPAPGKERELVAAISRSGGSTYYADSVKGRFTLSRDNANNTVYLQMNSLKPEDTAFYYGATKSVLTGYDSWGQGTKVTVSS,high polyreactivity
8,QVQLVESGGGLVQAGGSLRLICAASGSTFTPNDMGWYRQAPGKERELVADISNYADSVKGRFTISRDNAKNTVYLQMNSLKPEDSAVYYCAAEWGGDRYGLYVVSWWYDYWGQGTQVTLSS,low polyreactivity
9,QVQLVESGGGLVQAGGSLRLICAASGSTFTPYAMGWYRQEPGKERELVAAIRGSGGRTYYADSVKGRFTISRDNAKNTVYLQMNSLKPEDTAVYYCAASWLYTGWGRYDYWGQGTQVTVSS,high polyreactivity
10,QVQLVESGGGLVQAGGSLRLICAASGSTFVEYAMGWYRQAPGKERELVATISYRGTRTYYADSVKGRFTISRDNAKNTVYLQMNSLKPEDTAVYYCAARSWFRTVEYDYWGKGTQVTVSS,high polyreactivity
11,QVQLVESGGGLVQAGGSLRLICAASGSTFWWYAMGWYRKAPGKEREFVAAIRWSSGSTYYADSVKGRFTISRDNAKNTVYLQMNSLKPEDTAVYYCATDDTSNVYVDLDYWGQGTQVTVSS,high polyreactivity
12,QVQLVESGGGLVQAGGSLRLICAASGSTFYHNVMGWYRQAPGKERELLASIYRGGSTYYADSVKGRFTISRDNAKNTVYVQMNSLKPEDTAVYYCAADLSSDSSYSGYDYSGQGTQVTVSS,low polyreactivity
13,QVQLVESGGGLVQAGGSLRLICAASGSTFYIYAMGWYRQAPGKERELGATISSTGSTHYADSVKGRFTISRDNAKNTVYLQMNSLKPEDTAVYYCNRVYFGRYSRRDHWGQGTQVTVSS,high polyreactivity
14,QVQLVESGGGLVQAGGSLRLICAASGSTFYSYTMGWYRPAPGKERELVARISSSGSTNYADSVKGRFTISRYNAKNTVYLQMNSLKPEDTAVYYCNKDWFYRGYDYWGQGTQVTVSS,high polyreactivity
15,QVQLVESGGGLVQAGGSLRLICAASGSTFYTYAMGWYRQAPGKEREFVAAIRWRGGSTYYADSVKGRFTISRDNSKNTVFLQMNSLKPEDTAVYYCAAVSPGTVTNGKSRDYWGQGTQVTVSS,high polyreactivity
16,QVQLVESGGGLVQAGGSLRLICAASGSTFYYYTRVWYRQAPGKERELVAAISYGGSSTYYADSVKGRFTISRDNAKNSVYLQMNSLKPEDTAVYYCAAEYDWSYWLSYDYWGQGTLVTVSS,low polyreactivity

row,Sequence,polyreactivity (PSR sort gate)
1,QVQLVESGGGLVQAGGSLRLICAASGSTLKYYAMGWYRQAPGKERELVARITRSSGSTYYADSVKGRFTISRDNAKNTVYLQMNSLKPEDTAVYYCNAYGRFGLYDYWGQGTQVTVSS,high polyreactivity
2,QVQLVESGGGLVQAGGSLRLICAASGSTLVVNAMGWYRQAPGKERELVAAITSGGSTNYADSVKGRFTISRDNAKNTVYLQMNSLKPEDTAVYYCNAERGRSFWWAYDYWGQGTQVTVSS,low polyreactivity
3,QVQLVESGGGLVQAGGSLRLICAASGTIFDIYAMGWYRQAPGKERELVAAISLSAGSTYYADSVKGRFTISRDNAKNTVYLQMNSLKPEDTAGYYFNADGWYGYWGQGTQVTVSS,low polyreactivity
4,QVQLVESGGGLVQAGGSLRLICAASGTIFITNAMGWYRPAPGKERELVAAISGRGGSTYYADSVKGRFTISRDNAKNTVYLQMNSLKPEDTAVYYCNAYSYRVSGYDYWGQGTQVTVSS,high polyreactivity
5,QVQLVESGGGLVQAGGSLRLICAASGYIFAYNTMGWYRQAPGKERELVAAISRSGGSTYYADSVKGRFTISRDNAKNTVYLQMNSLKPEDTAVYSCAARYAPLDFRFDYWGQGTQVTVSS,high polyreactivity
6,QVQLVESGGGLVQAGGSLRLICAASGYTFAFYAMGWYRQAPGKEREFVASINWNGSSTYADSVKGRFTISRDNAKNTVYLQMNSLKPEDTAVYYCNADYNRNSVQFSLYDYWGQGTQVTVSS,low polyreactivity
7,QVQLVESGGGLVQAGGSLRLICAASGYTFGHYVMGWYRQAPGKERELGAAISRGGGSTSYADSVKGRFTISRDNAKNTVYLQMNSLKPEDTAVYYCAKKSTYFKWSRMYWGQGTQVTVSS,high polyreactivity
8,QVQLVESGGGLVQAGGSLRLICAASGYTFGYYAMGWYRQAPGKERELVAAISWRGARTNYADSVEGRFTISRDNAKNTVYLQMNSLKPEDTAVYYCAARGGYYQGRYKYGYWGQGTQVTVSS,high polyreactivity
9,QVQLVESGGGLVQAGGSLRLICAASGYTFPYNVMGWYRQAQGKERELVAAITSSGGSTYYADSVKGRFTISRDNAKTTVYLQMNSLKPEDTAVYYCNASPSSSLFDYLGQGTQVTVSS,low polyreactivity
10,QVQLVESGGGLVQAGGSLRLICAASRSNFFPYAMGWYRQAPGKERELVDTISGSTGRTYYADSVKGRFTISRDNAKNTVYLQMNSLKPQDTAVYYCATSVGYYLAPIKYDYWGQRTQVTVSS,low polyreactivity
11,QVQLVESGGGLVQAGGSLRLICAASVSTFRDHAMGWYRQAPAKERDLVAAIDIDSSTYYADSVKGRFTISLDNAKNSVYLHMNSLKPEDTAVYYCNKDASGGTTTEVDYWGQGTQVTVSS,low polyreactivity
12,QVQLVESGGGLVQAGGSLRLICAATGLIFPLYDMGWYRQAAGKERELVAAITLGGGGTYYADSVKGRFTISRDNAKNTVYLQMNSLKPEDTAVYYCNADYDIAAQLRTYITFDYWGQGTQVTVSS,low polyreactivity
13,QVQLVESGGGLVQAGGSLRLICASSGSILRYNTMVWYRQAPGKERELVAAITYRGGSTYYADSVKGRFTISRDNAKNTVYLQMNSLKPEDTAVYYCNAARWWKTPDDYWGQGNQVTVSS,high polyreactivity
14,QVQLVESGGGLVQAGGSLRLICDASGFTFSPNAMGWYRQAPGKERELVAAIDWSGDRTYYADSVKGRFTISRDNAKNTVYLQMNSLKPEDTAVYYCNDVRRSPGDYSYYYWGQGTQVTVSS,low polyreactivity
15,QVQLVESGGGLVQAGGSLRLICDASGSTFYRYAMGWYRQAPGKERELVAAISRSGGRTYYADSVKGRFTISRDNAKNTVYLQMNSLKPEDTADYYCAADVGPKQDATHDYWGQGTQLTVSS,high polyreactivity
16,QVQLVESGGGLVQAGGSLRLICPASGRIFRYYAMGWYRQARGKERELVAGITTGGGSTYYADSVKGRFTISRDNAKNTVFLQMNSLKPEDTAVYYCAARYYTTYYCGQGTQVTVSS,high polyreactivity
